Assay results reported in PMC10167949.
The star is where a group is joined. Biotin = O=C1N[C@H]2[C@H](CS[C@H]2CCCCC(=O)*)N1

Columns and labels:
[1] = molecular target: Phosphorylated MST2 kinase domain (pMST2-K) (human) (UniProt Q13188)
[2] = molecular target: Phosphorylated MST2 kinase linker (pMST2-KL) (human) (UniProt Q13188)
[3] = molecular target: Phosphorylated full-length MST2 (pMST2-FL) (human) (UniProt Q13188)
[4] = molecular target: T1, Unphosphorylated full-length MST2 (MST2-FL) (human) (UniProt Q13188)
T1 sequence: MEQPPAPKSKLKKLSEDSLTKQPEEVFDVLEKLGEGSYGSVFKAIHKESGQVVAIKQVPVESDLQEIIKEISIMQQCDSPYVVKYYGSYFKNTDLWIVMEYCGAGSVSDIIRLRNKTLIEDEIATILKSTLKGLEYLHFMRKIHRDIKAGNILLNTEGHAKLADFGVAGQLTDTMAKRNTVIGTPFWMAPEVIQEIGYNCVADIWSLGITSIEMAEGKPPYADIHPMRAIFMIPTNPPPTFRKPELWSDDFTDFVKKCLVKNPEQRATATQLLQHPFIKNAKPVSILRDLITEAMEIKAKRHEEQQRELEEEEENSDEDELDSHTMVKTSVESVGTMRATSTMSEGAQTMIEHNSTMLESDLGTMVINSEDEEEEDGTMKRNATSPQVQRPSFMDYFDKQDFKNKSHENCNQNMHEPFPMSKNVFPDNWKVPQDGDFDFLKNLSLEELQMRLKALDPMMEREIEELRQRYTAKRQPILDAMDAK

Km^app peptide, radiometric kinase assay (steady state, 30°C) [1]: 27 µM
Km^app peptide, radiometric kinase assay (steady state, 30°C) [2]: 35 µM
Km^app peptide, radiometric kinase assay (steady state, 30°C) [3]: 32 µM
Km^app peptide, radiometric kinase assay (steady state, 30°C) [4]: 139 µM
B1: peptide substrate (Biotin-…-NH2) (peptide)
peptide: Biotin-GGGENWYNTLKRKK-NH2
SMILES: CC(C)C[C@H](NC(=O)[C@@H](NC(=O)[C@H](CC(N)=O)NC(=O)[C@H](Cc1ccc(O)cc1)NC(=O)[C@H](Cc1c[nH]c2ccccc12)NC(=O)[C@H](CC(N)=O)NC(=O)[C@H](CCC(=O)O)NC(=O)CNC(=O)CNC(=O)CNC(=O)CCCC[C@@H]1SC[C@@H]2NC(=O)N[C@@H]21)[C@@H](C)O)C(=O)N[C@@H](CCCCN)C(=O)N[C@@H](CCCNC(=N)N)C(=O)N[C@@H](CCCCN)C(=O)N[C@@H](CCCCN)C(N)=O
